Measured values from publication PMC8526979, “The predicted stem-loop structure in the 3′-end of the human norovirus antigenomic sequence is required for its genomic RNA synthesis by its RdRp” (The Journal of Biological Chemistry, 2021).

Legend:
[1] = system: His-RdRp (NS7, RNA-dependent RNA polymerase) (Human norovirus GII.P3_GII.3 U201 strain); assay: competition; details: 50 mM Tris-HCl pH 7.4, 1.7% glycerol, 5 mM beta-mercaptoethanol, 0.5 ug/ul yeast RNA, 30 C 10 min, 20 ul; native PAGE at 4 C
[2] = target: T1, HuNV RdRp (His-RdRp; GII.P3 RdRp) (Norwalk-like virus, UniProt Q8JXI4); assay: RNA synthesis, dsRNA product after S1 nuclease, native PAGE with SYBR Green II; type: biochemical
T1 construct: mature NS7 RdRp from ORF1 genome polyprotein, cDNA nt 3581-5113; N-terminal His6 tag (pET28b), E. coli ArcticExpress (DE3); 57 kDa by SDS-PAGE

Row | Molecule | binding signal (% complex remaining) [1] | IC50 [2] [µM]
1 | 31AS RNA | 47.3 | –
2 | 100AS RNA | 13.5 | –
3 | C[C@@]1(O)[C@H](O)[C@@H](COP(=O)(O)OP(=O)(O)OP(=O)(O)O)O[C@H]1n1ccc(N)nc1=O [2′CM-CTP, 2′-C-methylcytidine triphosphate] | – | 57 ± 20
